Patent US8748480B2, “Methods for treating opioid tolerance” (priority 2005, dated 2014)

Tests used:
Type in all cases: binding
[1] = biological target: T1, Gβ1γ2 Leu117Ala (Rattus norvegicus, UniProt P54311, L117A); test: Phage ELISA, b-βγ mutant Leu117Ala; details: alanine-substituted Leu117, C-Terminal Interface; mean ± SD
T1 construct: made in house; host or cells: Sf9 insect cells (baculovirus)
Description: (§1) Wild-type Gβ1 and Gβ1 mutants were made in the baculovirus vector PDW464 which encodes a biotinylation site at a lysine upstream of the amino terminus of Gβ1 (Goubaeva, et al. (2003) supra). Mutants were generated by overlap extension PCR using standard protocols. The wild-type and mutant Gβ1 constructs consisted of a 20 amino acid biotin acceptor peptide (BAP) sequence fused in-frame with the amino-terminus of rat Gβ1 subunit. When coexpressed with biotin holoenzyme synthetase (BirA) in Sf9 cells, the Gβ1 subunit becomes covalently biotinylated in vivo at the Specific lysine acceptor residue in the BAP. Using this approach, 1-2 mg protein of purified protein can be obtained per liter of Sf9 insect cells. As 45 ng of protein is used in the phage ELISA assay, a single purification is sufficient for 10,000 to 30,000 binding assays.
(§2) Phage ELISA assays used to assess peptide binding to wild-type and mutant b-βγ were performed according to standard methods (Smrcka and Scott (2002) Methods Enzymol. 344:557-76). Briefly, 1 μg streptavidin was immobilized in the well of a […] overnight at 4° C. The wells were blocked with 100 μL of 2% bovine serum albumin (BSA) in Tris-buffered saline (TBS) for 1 hour at 4° C. followed by three washes of 1×TBS/0.5% TWEEN®. Forty μL of 25 nM bGβ1γ2 in TBS/0.5% TWEEN® was added to each well and incubated at 4° C. for 1.5 hour. The wells were washed, followed by the addition of 1×10^6 to 1×10^10 phage particles and incubated at 4° C. for 3 hours. The wells were then washed six times with TBS/0.5% TWEEN® followed by addition of 40 μL of 1:5000 dilution of anti-M13 antibody (Pharmacia, Uppsala, Sweden) and incubated at room temperature for 1 hour. The wells were washed, followed by the addition of 40 μL of (2,2′-Azino-bis(3-ethylbenzthiazoline)-6-sulfonic acid (ABTS) and the colorimetric reaction was monitored at 405 nm. Non-specific binding was subtracted for each reading.
(§3) Both assays were then carried out with Gβ1γ2 heterodimers containing mutations in the Gβ1 subunit.
(§4) The nine peptides were selected to represent the different consensus groups of peptides previously identified (See Scott et al. (2001) supra; Table 9) and to compare binding characteristics within and between consensus groups. […] As disclosed herein, the binding signal obtained in the ELISA assay was correlated to a loss in affinity by comparing the results to behavior of the peptide in a solution based assay. […] For the purposes of present disclosure, any substitution that decreased the binding to less than 20% of the wild-type binding was considered to be a critical binding contact for that peptide.

[2] = biological target: T2, Gβ1γ2 Lys57Ala (Rattus norvegicus, UniProt P54311, K57A); test: Phage ELISA, b-βγ mutant Lys57Ala; details: alanine-substituted Lys57, C-Terminal Interface; mean ± SD
T2 construct: made in house; host or cells: Sf9 insect cells (baculovirus)
Description: as §1, §2, §3, §4

[3] = biological target: T3, Gβ1γ2 Met188Ala (Rattus norvegicus, UniProt P54311, M188A); test: Phage ELISA, b-βγ mutant Met188Ala; details: alanine-substituted Met188, Shared; mean ± SD
T3 construct: made in house; host or cells: Sf9 insect cells (baculovirus)
Description: as §1, §2, §3, §4

[4] = biological target: T4, Gβ1γ2 Tyr59Ala (Rattus norvegicus, UniProt P54311, Y59A); test: Phage ELISA, b-βγ mutant Tyr59Ala; details: alanine-substituted Tyr59, C-Terminal Interface; mean ± SD
T4 construct: made in house; host or cells: Sf9 insect cells (baculovirus)
Description: as §1, with “BAP.” for “BAP. Using this approach, 1-2 mg protein of purified protein can be obtained per liter of Sf9 insect cells. As 45 ng of protein is used in the phage ELISA assay, a single purification is sufficient for 10,000 to 30,000 binding assays.”
as §2, with “Forty μL of 25 nM bGβ1γ2 in TBS/0.5% TWEEN® was added to each well and incubated at 4° C. for 1.5 hour.” left out
as §3
The nine peptides were selected to represent the different consensus groups of peptides previously identified (See Scott et al. (2001) supra; Table 9) and to compare binding characteristics within and between consensus groups. […] For the purposes of present disclosure, any substitution that decreased the binding to less than 20% of the wild-type binding was considered to be a critical binding contact for that peptide.

[5] = biological target: T5, Gβ1γ2 His311Ala (Rattus norvegicus, UniProt P54311, H311A); test: Phage ELISA, b-βγ mutant His311Ala; details: alanine-substituted His311, Indirect; mean ± SD
T5 construct: made in house; host or cells: Sf9 insect cells (baculovirus)
Description: as §1, §2, §3, §4

[6] = biological target: T6, Gβ1γ2 Asp246Ser (Rattus norvegicus, UniProt P54311, D246S); test: Phage ELISA, b-βγ mutant Asp246Ser; details: Asp246 mutant (Asp246Ser), N-Terminal Interface; mean ± SD
T6 construct: made in house; host or cells: Sf9 insect cells (baculovirus)
Description: as §1, §2, §3, §4

[7] = biological target: T7, Gβ1γ2 Trp332Ala (Rattus norvegicus, UniProt P54311, W332A); test: Phage ELISA, b-βγ mutant Trp332Ala; details: alanine-substituted Trp332, C-Terminal Interface; mean ± SD
T7 construct: made in house; host or cells: Sf9 insect cells (baculovirus)
Description: as §1, §2, §3, §4

[8] = biological target: T8, Gβ1γ2 Tyr145Ala (Rattus norvegicus, UniProt P54311, Y145A); test: Phage ELISA, b-βγ mutant Tyr145Ala; details: alanine-substituted Tyr145, N-Terminal Interface; mean ± SD
T8 construct: made in house; host or cells: Sf9 insect cells (baculovirus)
Description: as §1, §2, §3, §4

[9] = biological target: T9, Gβ1γ2 Asn230Ala (Rattus norvegicus, UniProt P54311, N230A); test: Phage ELISA, b-βγ mutant Asn230Ala; details: alanine-substituted Asn230, N-Terminal Interface; mean ± SD
T9 construct: made in house; host or cells: Sf9 insect cells (baculovirus)
Description: as §1, §2, §3, §4

[10] = biological target: T10, Gβ1γ2 Arg314Ala (Rattus norvegicus, UniProt P54311, R314A); test: Phage ELISA, b-βγ mutant Arg314Ala; details: alanine-substituted Arg314, Indirect; mean ± SD
T10 construct: made in house; host or cells: Sf9 insect cells (baculovirus)
Description: as §1, §2, §3, §4

[11] = biological target: T11, Gβ1γ2 Met101Ala (Rattus norvegicus, UniProt P54311, M101A); test: Phage ELISA, b-βγ mutant Met101Ala; details: alanine-substituted Met101, C-Terminal Interface; mean ± SD
T11 construct: made in house; host or cells: Sf9 insect cells (baculovirus)
Description: as §1, §2, §3, §4

[12] = biological target: T12, Gβ1γ2 Asp186Ala (Rattus norvegicus, UniProt P54311, D186A); test: Phage ELISA, b-βγ mutant Asp186Ala; details: alanine-substituted Asp186, N-Terminal Interface; mean ± SD
T12 construct: made in house; host or cells: Sf9 insect cells (baculovirus)
Description: as §1, §2, §3, §4

[13] = biological target: T13, Gβ1γ2 Trp99Ala (Rattus norvegicus, UniProt P54311, W99A); test: Phage ELISA, b-βγ mutant Trp99Ala; details: alanine-substituted Trp99, C-Terminal Interface; mean ± SD
T13 construct: made in house; host or cells: Sf9 insect cells (baculovirus)
Description: as §1, §2, §3, §4

T1 sequence (P54311 whole entry L117A): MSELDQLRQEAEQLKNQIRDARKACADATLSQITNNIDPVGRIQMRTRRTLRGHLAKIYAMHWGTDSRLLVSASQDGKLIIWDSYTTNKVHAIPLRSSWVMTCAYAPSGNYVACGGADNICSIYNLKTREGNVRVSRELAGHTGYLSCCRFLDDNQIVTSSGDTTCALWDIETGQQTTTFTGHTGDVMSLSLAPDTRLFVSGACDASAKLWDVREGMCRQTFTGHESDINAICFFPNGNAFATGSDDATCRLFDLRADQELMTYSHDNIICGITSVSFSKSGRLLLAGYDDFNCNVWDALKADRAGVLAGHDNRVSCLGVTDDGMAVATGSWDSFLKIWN
T1 sequence (P63212 2-68 partner limits assumed): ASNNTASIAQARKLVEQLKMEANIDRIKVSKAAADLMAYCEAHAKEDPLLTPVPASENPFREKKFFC
T11 sequence (P54311 whole entry M101A): as the sequence (P54311 whole entry L117A) above, with M101A, A117L counted along it
T11 sequence (P63212 2-68 partner limits assumed): as the sequence (P63212 2-68 partner limits assumed) above
T6 sequence (P54311 whole entry D246S): as the sequence (P54311 whole entry L117A) above, with A117L, D246S counted along it
T6 sequence (P63212 2-68 partner limits assumed): as the sequence (P63212 2-68 partner limits assumed) above
T12 sequence (P54311 whole entry D186A): as the sequence (P54311 whole entry L117A) above, with A117L, D186A counted along it
T12 sequence (P63212 2-68 partner limits assumed): as the sequence (P63212 2-68 partner limits assumed) above
T9 sequence (P54311 whole entry N230A): as the sequence (P54311 whole entry L117A) above, with A117L, N230A counted along it
T9 sequence (P63212 2-68 partner limits assumed): as the sequence (P63212 2-68 partner limits assumed) above
T10 sequence (P54311 whole entry R314A): as the sequence (P54311 whole entry L117A) above, with A117L, R314A counted along it
T10 sequence (P63212 2-68 partner limits assumed): as the sequence (P63212 2-68 partner limits assumed) above
T13 sequence (P54311 whole entry W99A): as the sequence (P54311 whole entry L117A) above, with W99A, A117L counted along it
T13 sequence (P63212 2-68 partner limits assumed): as the sequence (P63212 2-68 partner limits assumed) above
T7 sequence (P54311 whole entry W332A): as the sequence (P54311 whole entry L117A) above, with A117L, W332A counted along it
T7 sequence (P63212 2-68 partner limits assumed): as the sequence (P63212 2-68 partner limits assumed) above
T4 sequence (P54311 whole entry Y59A): as the sequence (P54311 whole entry L117A) above, with Y59A, A117L counted along it
T4 sequence (P63212 2-68 partner limits assumed): as the sequence (P63212 2-68 partner limits assumed) above
T2 sequence (P54311 whole entry K57A): as the sequence (P54311 whole entry L117A) above, with K57A, A117L counted along it
T2 sequence (P63212 2-68 partner limits assumed): as the sequence (P63212 2-68 partner limits assumed) above
T8 sequence (P54311 whole entry Y145A): as the sequence (P54311 whole entry L117A) above, with A117L, Y145A counted along it
T8 sequence (P63212 2-68 partner limits assumed): as the sequence (P63212 2-68 partner limits assumed) above
T5 sequence (P54311 whole entry H311A): as the sequence (P54311 whole entry L117A) above, with A117L, H311A counted along it
T5 sequence (P63212 2-68 partner limits assumed): as the sequence (P63212 2-68 partner limits assumed) above
T3 sequence (P54311 whole entry M188A): as the sequence (P54311 whole entry L117A) above, with A117L, M188A counted along it
T3 sequence (P63212 2-68 partner limits assumed): as the sequence (P63212 2-68 partner limits assumed) above

Sequence | % of Wild-Type Signal, Leu117 [1] | % of Wild-Type Signal, Lys57 [2] | % of Wild-Type Signal, Met188 [3] | % of Wild-Type Signal, Tyr59 [4] | % of Wild-Type Signal, His311 [5] | % of Wild-Type Signal, Asp246 [6] | % of Wild-Type Signal, Trp332 [7] | % of Wild-Type Signal, Tyr145 [8] | % of Wild-Type Signal, Asn230 [9] | % of Wild-Type Signal, Arg314 [10] | % of Wild-Type Signal, Met101 [11] | % of Wild-Type Signal, Asp186 [12] | % of Wild-Type Signal, Trp99 [13]
SCKRTKAQILLAPCT [C1] | 5.2 ± 3.1% | 0.1 ± 1.6% | 4.0 ± 3.4% | 0.3 ± 0.7% | 3.0 ± 4.0% | 2.3 ± 3.0% | −0.3 ± 2.5% | 88.0 ± 29.9% | 19.8 ± 12.3% | 2.8 ± 1.6% | 70.5 ± 35.3% | 1.4 ± 1.7% | 1.2 ± 2.7%
SIGKALFILGYPDYD [3.14] | 2.1 ± 2.4% | 18.6 ± 4.6% | 2.5 ± 3.7% | 24.7 ± 15.2% | 93.4 ± 21.5% | 66.5 ± 7.5% | 7.1 ± 3.7% | 0.8 ± 0.9% | 22.4 ± 4.2% | 50.2 ± 5.0% | 26.8 ± 12.5% | 14.4 ± 13.4% | 66.0 ± 7.7%
WCPPKAMTQLGIKAC [C14] | 3.8 ± 9.2% | 3.0 ± 5.0% | 9.9 ± 3.8% | 3.6 ± 2.0% | 6.1 ± 3.4% | 6.3 ± 13.9% | 1.6 ± 2.4% | 1.9 ± 5.9% | 60.0 ± 26.5% | 3.9 ± 7.9% | 1.1 ± 4.9% | 3.6 ± 1.9% | 10.1 ± 3.3%
LCSKAYLLLGQTC [2F] | 2.1 ± 5.5% | −4.5 ± 6.2% | 8.5 ± 5.2% | −2.0 ± 9.5% | 23.6 ± 46.0% | 0.6 ± 2.5% | −1.5 ± 3.6% | 0.1 ± 6.5% | 27.6 ± 19.1% | 2.4 ± 3.9% | 6.0 ± 5.1% | 2.4 ± 3.5% | 32.6 ± 26.3%
SCEKRYGIEFCT [C4] | 18.4 ± 7.1% | −0.2 ± 1.9% | 127.5 ± 22.4% | 7.6 ± 9.6% | 36.5 ± 8.3% | 35.8 ± 7.4% | 1.7 ± 3.0% | 4.4 ± 3.8% | 11.5 ± 6.0% | 1.4 ± 1.0% | 61.2 ± 30.9% | 51.3 ± 15.0% | 67.0 ± 15.2%
SCEKRLGVRSCT [C5] | 28.5 ± 5.2% | 5.6 ± 5.3% | 97.2 ± 14.2% | 73.8 ± 16.6% | 58.7 ± 14.4% | 56.3 ± 4.1% | 3.2 ± 3.7% | 16.7 ± 4.8% | 33.5 ± 7.2% | 76.5 ± 6.7% | 47.8 ± 18.9% | 45.7 ± 5.2% | 39.0 ± 3.8%
SCGHGLKVQSTIGACA [3C] | 10 ± 13.3% | 3.6 ± 7.5% | −5.7 ± 5.6% | 8.5 ± 6.4% | 30.5 ± 18.9% | 2.0 ± 2.7% | −0.3 ± 1.7% | 2.7 ± 10.5% | 4.1 ± 4.4% | 8.3 ± 3.6% | −4.2 ± 5.5% | 35.0 ± 17.2% | −0.5 ± 5.9%
WCPPKLEQWYDGCA [C2] | 1.5 ± 5.5% | −1.2 ± 4.5% | −0.7 ± 2.5% | −1.7 ± 4.8% | 11.7 ± 8.0% | 5.9 ± 5.7% | 4.7 ± 6.2% | 4.5 ± 8.1% | 0.0 ± 3.3% | 1.3 ± 3.1% | 157.1 ± 51.5% | 267.2 ± 40.6% | −1.0 ± 5.1%
